“Also recorded” adds a separate entry of the source.

Assay [1] has as its system Ba/F3 cells expressing BCR-ABL1E255V. As to the kind of experiment: Proliferation of transfected Ba/F3 BCR-ABL1 E255V cells (MTS assay). In kind it is cell-based, mouse. The conditions noted are these: CCmut3 vs EV; for proliferation, in words: MTS assay at 72 and 96 h. How it is done:
(§1) Stable recombinant Ba/F3 cells transduced with wild type p210 BCR-ABL1 (Daley, G. Q., et al. (1991) Proc. Natl. Acad. Sci. U.S.A. 88, 11335-11338), the kinase domain mutants p210^T315I p210^[…], or the compound mutant p210^E255V/T315I were as previously described (La Rosee, P., et al. (2002) Cancer Res. 62, 7149-7153; O'Hare, T., et al. (2004) Blood 104, 2532-2539). These cells were cultured in RPMI with 10% FBS, 1% penicillin, streptomycin, glutamine, and 0.1% gentamycin (RPMI1640). Additionally 0.1% MycoZap™ (Lonza Bio, Basel, Switzerland) was added to prevent mycoplasma contamination. The non-transduced parental Ba/F3 cell line was grown in RPMI1640 supplemented with 20% WEHI-3B conditioned medium as a source of murine IL-3 (Dexter, T. M., et al. (1980) J. Exp. Med. 152, 1036-1047). Ba/F3 cells were transfected with plasmid DNA using the Amaxa nucleofection system (Lonza Bio), following the manufacturer's instructions. Cells were sorted on a BD FACSAria cytometer (BD Biosciences, San Jose, Calif.) for double-positive cells expressing mCherry and GFP then returned to RPMI1640 for subsequent experiments.
(§2) Cell proliferation was assessed using the CellTiter 96® AQueous One Solution Cell Proliferation Assay (MTS assay, Promega) according to manufacturer instructions. Briefly, 5,000 viable cells were added to a single well in 96-well plate in 100 μL RPMI1640. Three independent samples were seeded in duplicate for each time point. […] In some experiments, cell proliferation was assessed using a Neubauer chamber and trypan blue dye exclusion.
(§3) Stable Ba/F3 cells transduced with native (p210) BCR-ABL1, the kinase domain mutants BCR-ABL1T315I, BCR-ABL1E255V, or the compound mutant BCR-ABL1E255V/T315I were cultured. […]
(§4) Cell proliferation was assessed using a […] viability assay (MTS assay) utilizing CellTiter 96® AQueous One Solution Cell Proliferation Assay (Promega) according to manufacturer instructions. […] Cell growth was assessed by MTS assay at 72 and 96 h. […] In patient sample experiments, cell proliferation was assessed by trypan blue exclusion.
A general note: Tetrazolium dyes change colour on reduction, which living cells bring about.

For assay [2], the system named is Ba/F3 cells expressing BCR-ABL1T315I. As to the kind of experiment: Proliferation of transfected Ba/F3 BCR-ABL1 T315I cells (MTS assay). Format: cell-based, mouse. The note with it: CCmut3 vs EV; for proliferation, in words: MTS assay at 72 and 96 h. How it is done: as §1, §2, §3, §4
Another assay has as its system K562 cells. As to the kind of experiment: 7-AAD and Annexin V staining of protein-treated K562 cells. In kind it is cell-based, human. The conditions noted are these: proteins 30 μM, imatinib 2.5 μM; 48 and 72 hours after treatment. How it is done: 0.5 μL of 1 mM 7-AAD (Invitrogen) was added to each sample, followed by a 45 minute incubation on ice. […] Analysis was performed using the FACS Canto-II (BD BioSciences, University of Utah Core Facility) with FACS Diva software. 7-AAD and APC were excited at 488 and 635 nm wavelengths, and emissions were detected at 660 nm. Percentage of apoptosis/necrosis was calculated by the percentage of cells that stained positive for 7-AAD and/or APC. Independent treatments were tested three times (n=3).

Another assay deals with Ba/F3-P210 cells. The assay is described as follows: Viability of transfected Ba/F3-p210 cells (trypan blue exclusion). In kind it is cell-based, mouse. The conditions noted are these: 72 h following transfection, vs mCherry control, n=1. How it is done:
Two days following cell passaging, 3.0×10^6 cells were collected by centrifugation at 750×g for 10 min for each transfection group. Following collection, 4 μg DNA was transfected into cells according to the Cell Line Nucleofector® Kit V protocol (program X-001) using the Amaxa Nuelcofector II. Following nucleofection, the DNA/cell mixture was added to 500 μL plain RPMI and incubated for 20 min. After incubation, the 500 μL cell/DNA/RPMI mixture was added to complete RPMI 1640 media and allowed to incubate at 37° C. for 72 h until analysis.
Forty-eight or 72 h following transfection, 100 μL of treated K562 or Ba/F3-p210 cells was mixed with 100 μL trypan blue solution (Life Technologies). The numbers of viable cells (those impermeable to the trypan blue dye) from four different quadrants in an INCYTO™ C-CHIP™ Neubauer hemacytometer (VWR International, Radnor, Pa., USA) were counted using a standard light microscope. Quadrant counts were then averaged to obtain the number of viable cells per mL. For experiments using the Helix2mut3 construct, counts were performed on one aliquot per transfection (n=3 in replicate). In experiments involving the CappedHelix2mut3 construct, counts were performed three times using separate 100 pt aliquots from one transfection (n=1 in triplicate).

B1: CCmut3: modified Bcr-Abl coiled-coil domain (residues 1-72) with mutations C38A, K39E, S41R, L45D, E48R, Q60E (protein)
chain: MVDPVGFAEAWKAQFPDSEPPRMELRSVGDIEQELERAEARIRRDEQRVNQERFRMIYLETLLAKEKKSYDR
Turning to B1, the reduction of proliferation result in assay [1] (96 h, MTS assay) is given as “approximately 3 fold”; in assay [2] (96 h, MTS assay), “approximately 3 fold”. The “proliferation, in words” value in assay [1] is “significant reduction of proliferative capacity; also recorded: lesser, yet significant difference was noted at the 72 h time point”; in assay [1] (listed as CC^mut3), “significant reduction”; in assay [2], “significant reduction of proliferative capacity; also recorded: lesser, yet significant difference was noted at the 72 h time point”; in assay [2] (listed as CC^mut3) it was “significant reduction”. Further, in the assay on K562 cells, the “induction of apoptosis/necrosis (7-AAD and/or Annexin V positive cells)” value is “did not induce apoptosis”. For the same molecule, the “proliferation/viability of Ba/F3-p210 cells” value with Ba/F3-P210 cells is on record as “replicated to a similar extent”.

Source of the values: US10494417B2, “Peptide inhibitors of BCR-ABL oligomerization” (University of Utah Research Foundation, priority 2014, dated 2019).
